The record followed here is patent US20260109758A1 (BIOSION, published 2026).

The target in experiment [1] is T1, recombinant human IL4Rα-his (human, UniProt P24394 26-231, limits assumed, biotin-labeled in the capture ELISA).
T1 construct: In-house made; not shown: His tag at the C-terminus
In words: SPR Biacore T200; antibody captured on anti-human IgG CM5 chip, IL4Rα-his as analyte; 1:1 Langmuir fit. The method, boiled down:
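Antibodies captured on anti-human IgG CM5 chip (bispecifics at 66.67 nM, controls 10 μg/mL), then serially diluted recombinant human IL4Rα-his (C-terminal His tag) in HBS EP flowed at 30 μL/min. Association and dissociation curves fit to 1:1 Langmuir model.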
In general terms: SPR reads the build-up and loss of mass on a sensor chip optically.

Experiment [2] addresses T2, recombinant human TSLP-his (human, UniProt Q969D9 29-159, biotin-labeled in the ELISAs).
T2 construct: In-house made; not shown: His tag at the C-terminus
Kind of experiment: capture ELISA: antibody captured on anti-human IgG Fc F(ab')2, biotin human TSLP-his, SA-HRP. On the procedure: Briefly, 96-well micro plates were coated with 100 μL 2 μg/mL AffiniPure F(ab′)₂ Fragment Goat Anti-Human IgG, Fey fragment specific (Jackson Immuno Research, Cat #109-006-008) in PBS and incubated overnight at 4° C. Plates were washed 4 times with wash buffer (PBS+0.05% Tween-20, PBST) and then blocked with 200 μL/well blocking buffer (5% w/v non-fatty milk in PBST) for 2 hours at 37° C. […] After the final wash, the plates were incubated with 100 μL/well TMB (Innoreagents). The reaction was stopped 15 minutes later at room temperature with 50 μL/well 1M H₂SO₄, and the absorbance of each well was read on a microplate reader using dual wavelength mode with 450 nm for TMB and 630 nm as the reference wavelength. The OD (450-630) values were plotted against antibody concentration. Data was analyzed using Graphpad Prism and EC₅₀ values were reported.

The target in experiment [3] is T2, recombinant human TSLP-his. Kind of experiment: SPR Biacore; TSLP-his amine-coupled to CM5 chip, antibody as analyte; 1:1 Langmuir fit. The procedure: Un-reacted moieties on the biosensor surface were blocked with ethanolamine. Then, serially diluted purified bispecific antibodies and the controls (2-fold serial dilution in HBS-EP⁺ buffer starting at 100 nM) were respectively flowed onto the chip at a flow rate of 30 μL/min. The antigen-antibody association kinetics was followed for 4 minutes and the dissociation kinetics was followed for 13 minutes.

The target of experiment [4] is T1, recombinant human IL4Rα-his. In words: dual-binding ELISA: coated human IL4Rα-his, antibody titrated, detection with biotin human TSLP-his and SA-HRP; signal needs both antigens bound. Background: ELISA stands for enzyme-linked immunosorbent assay.
Experiment [5] has as its target T2, recombinant human TSLP-his. In words: competitive ELISA: antibody pre-mixed with biotin human TSLP-his; blocked binding to coated TSLPR-Fc/IL7Ra-Fc. The procedure:
Briefly, 100 μL human TSLPR-Fc proteins (SEQ ID NO: 34-SEQ ID NO: 38 fusion, prepared in-house) at 1 μg/mL in PBS, and 100 μL human IL7Ra-Fc proteins (SEQ ID NO: 35-SEQ ID NO: 38 fusion, prepared in-house) at 1 μg/mL in PBS were coated on 96-well micro plates overnight at 4° C. The next day, plates were washed with wash buffer (PBS+0.05% Tween-20, PBST), and blocked with 5% w/v non-fatty milk in PBST for 2 hours at 37° C. Plates were then washed again using wash buffer.
After incubation at 37° C. for 40 minutes, plates were washed 4 times using wash buffer. […] Plates were washed again using wash buffer. Finally, TMB was added and the reaction was stopped using 1M H₂SO₄. The absorbance was read on a microplate reader using dual wavelength mode with 450 nm for TMB and 630 nm as the reference wavelength, then the OD (450-630) values were plotted against the antibody concentration. Data was analyzed using Graphpad Prism and IC₅₀ values were reported.

B1: BSI-502-004 (bispecific antibody, human IgG1, kappa)
heavy: DIQMTQSPSSLSASVGDRVTITCRTSENIYSYLAWYQQKPGKAPKFLVYNAKTLAEGVPSRFSGSGSGTDFTLTISSLQPEDFATYYCQHYYGPPTWTFGQGTKVEIKGGGGSGGGGSGGGGSGGGGSEVQLVESGGGLVQPGGSLRLSCAASGFTFSTYGMSWVRQAPGKGLVWVATINSNGGSTSYPDSVKGRFTISRDNAKNTLYLQMNSLRAEDTAVYYCARFFRFRNAMDYWGQGTLVTVSSGGGGSGGGGSQVQLVQSGAEVKKPGASVKVSCKASGYTFTTYWMHWVRQAPGQGLEWMGVIDPSDSDTTYNQKFKGRVTMTRDTSTSTVYMELSSLRSEDTAVYYCTRSLDGYYDYWGQGTLVTVSSASTKGPSVFPLAPSSKSTSGGTAALGCLVKDYFPEPVTVSWNSGALTSGVHTFPAVLQSSGLYSLSSVVTVPSSSLGTQTYICNVNHKPSNTKVDKKVEPKSCDKTHTCPPCPAPEAQGGPSVFLFPPKPKDTLYITREPEVTCVVVDVSHEDPEVKFNWYVDGVEVHNAKTKPREEQYNSTYRVVSVLTVLHQDWLNGKEYKCQVSNKALPAPIEKTISKAKGQPREPQVYTLPPSRDELTKNQVSLTCLVKGFYPSDIAVEWESNGQPENNYKTTPPVLDSDGSFFLYSKLTVDKSRWQQGNVFSCSVMHEALHNHYTQKSLSLSPG
light: DIQMTQSPSSLSASVGDRVTITCRPTENIYSYLAWYQQKPGKAPKLLIYFARTLAEGVPSRFSGSGSGTDFTLTISSLQPEDFATYYCQHHYGTPWTFGGGTKVEIKRTVAAPSVFIFPPSDEQLKSGTASVVCLLNNFYPREAKVQWKVDNALQSGNSQESVTEQDSKDSTYSLSSTLTLSKADYEKHKVYACEVTHQGLSSPVTKSFNRGEC
notes: hu1C5F12E9-V8 IgG with an anti-IL4R scFv (VL-VH) at the N-terminus of the heavy chain; AQQ and YTE already stand in the entry
As a reminder, the Kd is the constant that tells how readily two partners part at equilibrium. In general, koff refers to the rate constant with which the complex falls apart. One may read the kon as the rate constant with which the complex forms. By EC50 is commonly meant the concentration giving half of the maximal effect. One may read the IC50 as the concentration needed to halve the response being measured. As to B1, in experiment [1], the dissociation constant (Kd) was found to be 2.43 nM, the off-rate constant (koff) was 0.000453 s⁻¹ and the kon turned out to be 186000 M⁻¹ s⁻¹. The EC50 in experiment [2] is 0.103 nM. Also, in experiment [3], the Kd came to 3.42 pM, the koff came out at 1.71e-06 s⁻¹ and the kon was found to be 499000 M⁻¹ s⁻¹. Also, the EC50 in experiment [4] turned out to be 0.0652 nM. Also, the IC50 in experiment [5] was found to be 0.144 nM.
